B1: GpH7-A5/GpH7-B3 variant S337_09D/GpL16-k0 (antibody, human IgG1, kappa)
heavy 1: not shown
heavy 2: not shown
light: DIVMTQSPLSLPVTPGEPASISCQASESLVHSNRNTYLHWYLQKPGQSPQLLIYKVSNRFSGVPDRFSGSGSGTDFTLKISRVEAEDVGVYYCSQNTHVPPTFGQGTKVEIERTVAAPSVFIFPPSDEQLKSGTASVVCLLNNFYPREAKVQWKVDNALQSGNSQESVTEQDSKDSTYSLSSTLTLSKADYEKHKVYACEVTHQGLSSPVTKSFNRGEC
notes: also called He Ab S337_09D
B2: GpH7-A5/GpH7-B3 variant K334_10E/GpL16-k0 (antibody, human IgG1, kappa)
heavy 1: not shown
heavy 2: not shown
light: B1 light
notes: also called He Ab K334_10E
B3: GpH7-A5/GpH7-B3 variant K334_18N/GpL16-k0 (antibody, human IgG1, kappa)
heavy 1: not shown
heavy 2: not shown
light: B1 light
notes: also called He Ab K334_18N
B4: GpH7-A5/GpH7-B3 variant T335_10E/GpL16-k0 (antibody, human IgG1, kappa)
heavy 1: not shown
heavy 2: not shown
light: B1 light
notes: also called He Ab T335_10E
B5: GpH7-A5/GpH7-B3 variant S337_10E/GpL16-k0 (antibody, human IgG1, kappa)
heavy 1: not shown
heavy 2: not shown
light: B1 light
notes: also called He Ab S337_10E
B6: GpH7-A5/GpH7-B3 variant K334_09D/GpL16-k0 (antibody, human IgG1, kappa)
heavy 1: not shown
heavy 2: not shown
light: B1 light
notes: also called He Ab K334_09D
B7: GpH7-A5/GpH7-B3 variant Q295_14T/GpL16-k0 (antibody, human IgG1, kappa)
heavy 1: not shown
heavy 2: not shown
light: B1 light
notes: also called He Ab Q295_14T
B8: GpH7-A5/GpH7-B3 variant K334_14T/GpL16-k0 (antibody, human IgG1, kappa)
heavy 1: not shown
heavy 2: not shown
light: B1 light
notes: also called He Ab K334_14T
B9: GpH7-A5/GpH7-B3 variant Q295_10E/GpL16-k0 (antibody, human IgG1, kappa)
heavy 1: not shown
heavy 2: not shown
light: B1 light
notes: also called He Ab Q295_10E
B10: GpH7-A5/GpH7-B3 variant T335_07I/GpL16-k0 (antibody, human IgG1, kappa)
heavy 1: not shown
heavy 2: not shown
light: B1 light
notes: also called He Ab T335_07I
B11: GpH7-A5/GpH7-B3 variant S267_02A/GpL16-k0 (antibody, human IgG1, kappa)
heavy 1: not shown
heavy 2: not shown
light: B1 light
notes: also called He Ab S267_02A
B12: GpH7-A5/GpH7-B3 variant S239_09D/GpL16-k0 (antibody, human IgG1, kappa)
heavy 1: not shown
heavy 2: not shown
light: B1 light
notes: also called He Ab S239_09D
B13: GpH7-A5/GpH7-B3 variant S298_14T/GpL16-k0 (antibody, human IgG1, kappa)
heavy 1: not shown
heavy 2: not shown
light: B1 light
notes: also called He Ab S298_14T
B14: GpH7-A5/GpH7-B3 variant K334_15Y/GpL16-k0 (antibody, human IgG1, kappa)
heavy 1: not shown
heavy 2: not shown
light: B1 light
notes: also called He Ab K334_15Y
B15: GpH7-A5/GpH7-B3 variant S267_09D/GpL16-k0 (antibody, human IgG1, kappa)
heavy 1: not shown
heavy 2: not shown
light: B1 light
notes: also called He Ab S267_09D
B16: GpH7-A5/GpH7-B3 variant S337_18N/GpL16-k0 (antibody, human IgG1, kappa)
heavy 1: not shown
heavy 2: not shown
light: B1 light
notes: also called He Ab S337_18N
B17: GpH7-A5/GpH7-B3 variant K334_08L/GpL16-k0 (antibody, human IgG1, kappa)
heavy 1: not shown
heavy 2: not shown
light: B1 light
notes: also called He Ab K334_08L
B18: GpH7-A5/GpH7-B3 variant K334_13S/GpL16-k0 (antibody, human IgG1, kappa)
heavy 1: not shown
heavy 2: not shown
light: B1 light
notes: also called He Ab K334_13S
B19: GpH7-A5/GpH7-B3 variant Q295_02A/GpL16-k0 (antibody, human IgG1, kappa)
heavy 1: not shown
heavy 2: not shown
light: B1 light
notes: also called He Ab Q295_02A
B20: GpH7-A5/GpH7-B3 variant K334_16H/GpL16-k0 (antibody, human IgG1, kappa)
heavy 1: not shown
heavy 2: not shown
light: B1 light
notes: also called He Ab K334_16H
B21: GpH7-A5/GpH7-B3 variant K334_19Q/GpL16-k0 (antibody, human IgG1, kappa)
heavy 1: not shown
heavy 2: not shown
light: B1 light
notes: also called He Ab K334_19Q
B22: GpH7-B3 variant E269_01G/GpL16-k0 (antibody, human IgG1, kappa)
heavy: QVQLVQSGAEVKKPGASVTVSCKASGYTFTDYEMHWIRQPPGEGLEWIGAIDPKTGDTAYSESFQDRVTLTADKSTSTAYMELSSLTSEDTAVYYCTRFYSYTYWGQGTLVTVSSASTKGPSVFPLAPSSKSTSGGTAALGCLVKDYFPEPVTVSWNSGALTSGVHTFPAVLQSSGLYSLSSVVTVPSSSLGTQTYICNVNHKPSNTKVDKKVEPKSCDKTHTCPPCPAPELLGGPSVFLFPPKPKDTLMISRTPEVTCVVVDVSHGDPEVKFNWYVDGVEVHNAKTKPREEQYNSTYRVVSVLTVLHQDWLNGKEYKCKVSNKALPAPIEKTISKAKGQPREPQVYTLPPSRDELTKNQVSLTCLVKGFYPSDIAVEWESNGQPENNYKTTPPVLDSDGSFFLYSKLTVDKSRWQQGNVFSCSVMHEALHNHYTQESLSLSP
light: B1 light
notes: also called Ho Ab E269_01G
B23: GpH7-B3 variant A327_07I/GpL16-k0 (antibody, human IgG1, kappa)
heavy: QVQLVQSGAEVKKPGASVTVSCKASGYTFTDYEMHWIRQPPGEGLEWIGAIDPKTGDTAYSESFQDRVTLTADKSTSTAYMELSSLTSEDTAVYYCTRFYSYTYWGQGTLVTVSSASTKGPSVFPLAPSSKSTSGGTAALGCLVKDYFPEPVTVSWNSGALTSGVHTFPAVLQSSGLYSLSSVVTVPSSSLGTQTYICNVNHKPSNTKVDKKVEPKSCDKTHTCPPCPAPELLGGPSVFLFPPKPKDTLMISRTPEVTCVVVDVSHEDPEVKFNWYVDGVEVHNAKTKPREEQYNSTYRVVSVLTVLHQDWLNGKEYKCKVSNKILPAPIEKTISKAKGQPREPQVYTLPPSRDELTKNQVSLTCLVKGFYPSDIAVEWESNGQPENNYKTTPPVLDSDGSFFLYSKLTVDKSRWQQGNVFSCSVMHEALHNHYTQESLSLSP
light: B1 light
notes: also called Ho Ab A327_07I
B24: GpH7-B3 variant E269_20W/GpL16-k0 (antibody, human IgG1, kappa)
heavy: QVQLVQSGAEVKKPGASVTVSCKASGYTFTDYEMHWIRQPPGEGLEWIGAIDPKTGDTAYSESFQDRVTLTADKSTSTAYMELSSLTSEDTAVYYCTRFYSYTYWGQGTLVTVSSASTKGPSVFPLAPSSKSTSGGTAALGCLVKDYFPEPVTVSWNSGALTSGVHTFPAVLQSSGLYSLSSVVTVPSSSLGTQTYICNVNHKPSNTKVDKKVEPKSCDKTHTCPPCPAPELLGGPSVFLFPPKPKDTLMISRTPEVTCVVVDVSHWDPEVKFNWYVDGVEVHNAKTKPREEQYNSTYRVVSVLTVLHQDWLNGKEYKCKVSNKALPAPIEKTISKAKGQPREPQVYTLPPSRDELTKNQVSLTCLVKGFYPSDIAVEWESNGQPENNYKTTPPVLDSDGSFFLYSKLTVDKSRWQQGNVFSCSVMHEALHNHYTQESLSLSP
light: B1 light
notes: also called Ho Ab E269_20W
B25: GpH7-B3 variant E269_02A/GpL16-k0 (antibody, human IgG1, kappa)
heavy: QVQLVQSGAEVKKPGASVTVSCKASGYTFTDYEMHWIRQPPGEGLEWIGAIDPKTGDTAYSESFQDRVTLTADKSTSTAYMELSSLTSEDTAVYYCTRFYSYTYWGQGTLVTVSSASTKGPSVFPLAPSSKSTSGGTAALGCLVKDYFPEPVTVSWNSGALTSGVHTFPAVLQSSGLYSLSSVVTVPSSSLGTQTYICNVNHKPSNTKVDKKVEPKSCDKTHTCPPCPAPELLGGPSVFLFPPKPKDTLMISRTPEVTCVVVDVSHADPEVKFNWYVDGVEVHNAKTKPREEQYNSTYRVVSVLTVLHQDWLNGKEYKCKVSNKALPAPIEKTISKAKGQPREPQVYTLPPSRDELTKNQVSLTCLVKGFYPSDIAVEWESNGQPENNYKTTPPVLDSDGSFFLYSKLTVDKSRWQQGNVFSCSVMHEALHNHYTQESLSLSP
light: B1 light
notes: also called Ho Ab E269_02A

T2 sequence (P12314 16-292): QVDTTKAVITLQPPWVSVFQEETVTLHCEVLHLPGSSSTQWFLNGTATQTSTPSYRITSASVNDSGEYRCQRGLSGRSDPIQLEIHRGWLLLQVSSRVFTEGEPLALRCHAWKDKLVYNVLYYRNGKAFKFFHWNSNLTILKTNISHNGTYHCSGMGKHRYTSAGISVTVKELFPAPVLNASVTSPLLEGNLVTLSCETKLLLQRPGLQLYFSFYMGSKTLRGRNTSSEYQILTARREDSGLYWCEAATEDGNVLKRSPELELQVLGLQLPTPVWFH

For the first test, the target named is T1, FcγRIIIa extracellular domain with C-terminal His tag (human, UniProt P08637 17-208).
T1 construct: extracellular domain; also called FcgRIIIa; 3a; not shown: His tag attached to the C terminus
T1 sequence (P08637 17-208): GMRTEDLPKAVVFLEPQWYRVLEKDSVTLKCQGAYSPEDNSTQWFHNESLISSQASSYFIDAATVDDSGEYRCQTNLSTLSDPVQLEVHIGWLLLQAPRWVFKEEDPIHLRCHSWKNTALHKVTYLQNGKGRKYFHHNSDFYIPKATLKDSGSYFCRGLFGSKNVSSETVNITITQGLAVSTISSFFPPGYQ
The test can be described thus: SPR Biacore, captured antibody, FcγR analyte, relative binding. In outline: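 Antigen peptide is immobilized on CM5 by amine coupling or, biotinylated, on SA chips; test antibody is captured on it; each FcγR, diluted in HBS-EP+, flows over at 25° C; captured antibody is stripped with 10 mM glycine-HCl, pH 1.5.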
Take B1: the He/Con_3a was 110 % of HeCon Ab GpH7-A5/GpH7-B3/GpL16-k0 (=100).
Same read-out and setting: in the case of B2 it was 181 % of HeCon Ab GpH7-A5/GpH7-B3/GpL16-k0 (=100); in that of B3, 136 % of HeCon Ab GpH7-A5/GpH7-B3/GpL16-k0 (=100); in that of B4, 107 % of HeCon Ab GpH7-A5/GpH7-B3/GpL16-k0 (=100).
Same read-out and setting: as for B5, the figure is 105 % of HeCon Ab GpH7-A5/GpH7-B3/GpL16-k0 (=100); as for B6, 160 % of HeCon Ab GpH7-A5/GpH7-B3/GpL16-k0 (=100).
In the case of B7, the He/Con_3a is 115 % of HeCon Ab GpH7-A5/GpH7-B3/GpL16-k0 (=100).
Same read-out and setting: as for B8, the figure is 141 % of HeCon Ab GpH7-A5/GpH7-B3/GpL16-k0 (=100); as for B9, 100 % of HeCon Ab GpH7-A5/GpH7-B3/GpL16-k0 (=100); as for B10, 107 % of HeCon Ab GpH7-A5/GpH7-B3/GpL16-k0 (=100).
The same measure, in the same setting: in the case of B11 it was 150 % of HeCon Ab GpH7-A5/GpH7-B3/GpL16-k0 (=100); in that of B12, 166 % of HeCon Ab GpH7-A5/GpH7-B3/GpL16-k0 (=100).
Still for that read-out and setting: in the case of B13 it was 113 % of HeCon Ab GpH7-A5/GpH7-B3/GpL16-k0 (=100); in that of B14, 141 % of HeCon Ab GpH7-A5/GpH7-B3/GpL16-k0 (=100).
Take B15: the He/Con_3a was 181 % of HeCon Ab GpH7-A5/GpH7-B3/GpL16-k0 (=100).
As for B16, the He/Con_3a is 104 % of HeCon Ab GpH7-A5/GpH7-B3/GpL16-k0 (=100).
B17: the He/Con_3a is 143 % of HeCon Ab GpH7-A5/GpH7-B3/GpL16-k0 (=100).
With B18, the He/Con_3a was 145 % of HeCon Ab GpH7-A5/GpH7-B3/GpL16-k0 (=100).
The same measure, in the same setting: in the case of B19 it was 106 % of HeCon Ab GpH7-A5/GpH7-B3/GpL16-k0 (=100); in that of B20, 134 % of HeCon Ab GpH7-A5/GpH7-B3/GpL16-k0 (=100).
With B21, the He/Con_3a is 136 % of HeCon Ab GpH7-A5/GpH7-B3/GpL16-k0 (=100).

The next test has as its target T2, FcγRIa (human, UniProt P12314 16-292).
T2 construct: extracellular domain; also called FcgRI; 1a
The test can be described thus: SPR (Biacore); Ho Ab relative to HoCon Ab = 100. The procedure: Analysis of interaction between objective antibody and the FcγR was carried out using Biacore T100 (GE Healthcare). HBS-EP+ (GE Healthcare) was used as the running buffer, and the measurement temperature was set to 25° C. Chips produced by immobilizing the antigen peptide by the amine coupling method to a Series S Sencor Chip CM5 (GE Healthcare), or alternatively, chips produced by allowing preliminarily biotinylated antigen peptides to interact with and immobilize onto a Series S Sensor Chip SA (certified) (GE Healthcare) were used. Antibodies of interest were captured onto an antigen peptide-immobilized chip, and allowed to interact to each FcγR diluted with running buffer. To regenerate and repeatedly use the chip, the antibodies captured on the chip were washed off by reacting 10 mM glycine-HCl, pH 1.5.
On to B22, for which the Ho/Con_1a is 97.4 % of control.
Same read-out and setting: in the case of B23 it was 95.5 % of control; in that of B24, 98.9 % of control.
As for B25, the Ho/Con_1a was 96.2 % of control.
